Results on 5 molecules are retold here after patent US20110217237A1 (AbbVie / Abbott, published 2011).

A word on the Kd: it is the concentration at which binding is half-saturated. One may read the EC50 as the concentration at which the effect is half-maximal. A word on the IC50: it is the midpoint of a concentration-inhibition curve. The term koff denotes the rate constant with which the complex falls apart. As usually defined, the kon is a measure of how fast the partners come together.

Where two headings read alike, the source gives them in different places.

The target of assay [1] is T1, human DLL4 extracellular domain (human, UniProt Q9NR61 27-529).
T1 construct: purified recombinant ECD; biotin-labelled or 6xHis-tagged depending on the assay; also called huDLL4 ECD; hu DLL4 ECD
Kind of assay: SPR (Biacore). On the procedure: (§1) The BIACORE® surface plasmon resonance assay (Biacore, Inc., Piscataway, N.J., US) determines the affinity of antibodies with kinetic measurements of on-rate and off-rate constants. Binding of DLL4 antibodies to a purified recombinant DLL4 extracellular domain (ECD) was determined by surface plasmon resonance-based measurements with a Biacore® instrument (either a Biacore 2000, Biacore 3000, or Biacore T100; GE Healthcare, Piscataway, N.J., US) using running buffer HBS-EPB (10 mM HEPES [pH 7.4], 150 mM NaCl, 3 mM EDTA, 0.1 mg/ml BSA and 0.005% surfactant P20) at 25° C. For example, approximately 9000 RU of goat anti-human Fc specific polyclonal antibody (Thermo Fisher Scientific Inc., Rockford, Ill., US) diluted in 10 mM sodium acetate (pH 4.5) is directly immobilized across a CMS research grade biosensor chip using a standard amine coupling kit according to manufacturer's instructions and procedures at 25 μg/ml. Unreacted moieties on the biosensor surface were blocked with ethanolamine. For kinetic analysis, rate equations derived from the 1:1 Langmuir binding model were fitted simultaneously to multiple antigen injections (using global fit analysis) with the use of Scrubber 2 (BioLogic Software), Biacore Biaevaluation 4.0.1 software or Biacore T100 Evaluation software. Purified antibodies were diluted in running buffer for capture across goat anti-human Fc reaction surfaces. Antibodies to be captured as a ligand (1 μg/ml) were injected over reaction matrices at a flow rate of 10 μl/min. During the assay, all measurements were referenced against the capture surface alone (i.e., with no captured anti-DLL4 antibody). […] The equilibrium dissociation constant KD (M) of the reaction between antibodies and the target antigen was then calculated from the kinetic rate constants by the following formula: KD=Koff/Kₒₙ. Binding was recorded as a function of time and kinetic rate constants were calculated.
On the technique in general: SPR reads the build-up and loss of mass on a sensor chip optically.

Assay [2] concerns the target T2, mouse DLL4 extracellular domain (mouse, UniProt Q9JI71 27-532).
T2 construct: extracellular domain; also called muDLL4 ECD; murine DLL4
Kind of assay: SPR (Biacore). On the procedure:
as §1

In assay [3] the target is T1, human DLL4 extracellular domain. The assay is described as follows: binding ELISA. On the procedure:
(§2) Plates were then washed 3 times. 100 μl/well of recombinant rat/human chimeric or recombinant human anti-DLL4 antibodies were then added to the plate (0.00164-27 nM, 4-fold serial dilution in ELISA buffer=PBST, 10% Superblock (Pierce #37515)) for 1 hour at 25° C. with shaking and then washed again 3 times. Plates were incubated with goat anti-human HRP (Pierce #31412) (1:40,000 dilution in ELISA buffer, 100 μl/well) for 1 hour at 25° C. with shaking, then washed 3 times. After the final wash, plates were incubated with 100 μl/well ELISA substrate (Sigma #T8665). The reaction was stopped after 8 minutes at 25° C. with 100 μl/well 1N HCl and the absorbance was read at 450 nm. Data were analyzed using Graphpad Prism software, and EC50 values were reported.
(§3) Purified variants were further characterized for their affinities for human, murine and cynomolgus DLL4 by binding ELISA (Example 1.2, Method 2), by Biacore (Example 1.1), and by Flow Cytometry (FACS). […] The humanized variants were then tested for their functionality with human and murine DLL4 by competition ELISA (Example 1.3) and by Notch reporter assay (Example 1.6).
For orientation: An ELISA detects its analyte on a solid surface through an enzyme-linked reagent.

Assay [4] addresses T3, cynomolgus monkey DLL4 extracellular domain (cynomolgus monkey).
T3 construct: extracellular domain; also called cynoDLL4 ECD; Cyno DLL4
The assay is described as follows: binding ELISA. On the procedure:
as §2, §3

The target of assay [5] is T2, mouse DLL4 extracellular domain. Kind of assay: binding ELISA. On the procedure:
as §2, §3

In assay [6] the target is T4, human DLL4, full length, on cells (human, UniProt Q9NR61 27-685).
T4 construct: also called huDLL4 cells; human DLL4-293G
The assay is described as follows: FACS, DLL4 cells. (In general: In flow cytometry, cells or beads pass a laser one at a time.)

Assay [7] deals with T5, mouse DLL4 on cells (mouse, UniProt Q9JI71 27-686).
T5 construct: whole, on cells; also called mouse DLL4-293G; mu DLL4 cells
Kind of assay: FACS, DLL4 cells.

Assay [8] addresses T4, human DLL4, full length, on cells. The assay is described as follows: cell-based or functional assay.
Assay [9] has as its target T1, human DLL4 extracellular domain. The assay is described as follows: competition ELISA vs Notch-1. As to the method:
(§4) Plates were then washed 3 times with wash buffer (PBS, 0.05% Tween-20) and blocked with 200 μl/well blocking buffer (D-PBS, 1% BSA, 1 mM CaCl₂, 0.05% Tween-20) for 1 hour at 25° C. While blocking, biotin labeled DLL4 extracellular domain (14 nM) was mixed with antibody (30 pM-66 nM, 3-fold serial dilution in blocking buffer) for 1 hour at 25° C. with shaking. Assay plates were washed after blocking, and incubated with DLL4/antibody mixtures (100 μl/well, 1 hour at 25° C. with shaking). Plates were washed again and 100 μl/well streptavidin conjugated with HRP (Fitzgerald #65R-S104PHRPx, diluted 1:5,000 in blocking buffer) was added for 1 hour at 25° C. with shaking. After a final wash, plates were developed using 100 μl/well substrate (TMB Sigma #T8665), and the reaction was stopped using 100 μl/well 1N HCl, and the absorbance was read at 450 nm. Data were analyzed using Graphpad Prism software and IC₅₀ values were reported as the concentration of antibody to achieve 50% reduction of DLL4 bound to Notch1.
as §3

Assay [10] concerns the target T2, mouse DLL4 extracellular domain. The assay is described as follows: competition ELISA vs Notch-1. As to the method:
as §4, §3

The target in assay [11] is T1, human DLL4 extracellular domain. The assay is described as follows: SPR (Biacore). A digest of the protocol:
(§5)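 Purified anti-DLL4 antibodies (1 μg/ml) captured on immobilized goat anti-human Fc, with DLL4 ECD injected as analyte; HBS-EPB running buffer (pH 7.4), 25° C, referenced against capture-only surface. On/off rates from global 1:1 Langmuir fit; KD = Koff/Kon.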
This is another data set of the same source.

Assay [12] concerns the target T3, cynomolgus monkey DLL4 extracellular …. Kind of assay: SPR (Biacore). A digest of the protocol:
as §5

Assay [13] has as its target T2, mouse DLL4 extracellular domain. The assay is described as follows: SPR (Biacore). Summed up:
as §5
The source holds these as a separate data set.

In assay [14] the target is T6, rat DLL4 extracellular domain (rat, UniProt D3ZHH1 28-530).
T6 construct: extracellular domain; also called ratDLL4 ECD
Kind of assay: SPR (Biacore). A digest of the protocol: as §5

Assay [15] addresses T4, human DLL4, full length, on cells. The assay is described as follows: cell-based or functional assay. The source holds these as a separate data set.
Assay [16] addresses T5, mouse DLL4 on cells. Kind of assay: cell-based or functional assay.
Assay [17] deals with T4, human DLL4, full length, on cells. Kind of assay: FACS, direct binding to DLL4 cells. On the procedure:
(§6) Stable cell lines overexpressing cell-surface DLL4 were harvested from tissue culture flasks, washed four times and resuspended in phosphate buffered saline (PBS) containing 1% bovine serum albumin and 1 mM CaCl₂ (FACS buffer). 1.5×10⁵ cells were incubated with antibodies at various concentrations in FACS buffer for 60 minutes on ice. […] Following an incubation on ice (4° C., 60 minutes), cells were washed three times and resuspended in FACS buffer. Fluorescence was measured using a Becton Dickinson FACSCalibur-HTS (Becton Dickinson, San Jose, Calif., US). Data were analyzed using Graphpad Prism software and EC₅₀ values were reported as the concentration of antibody to achieve 50% of maximal DLL4 antibodies binding to DLL4 expressing cells.
(§7) The hu1A11.1 affinity matured clones (Table 22) were expressed, purified, and further characterized in vitro. Their activities of binding to cell-bound DLL4 and inhibiting cell-bound DLL4-induced Notch activation were further examined using methods described in Examples 1.3 and 1.6, and are summarized in Table 26 (below).

The target in assay [18] is T5, mouse DLL4 on cells. The assay is described as follows: FACS, direct binding to DLL4 cells. On the procedure:
as §6, §7

T5 sequence (Q9JI71 27-686): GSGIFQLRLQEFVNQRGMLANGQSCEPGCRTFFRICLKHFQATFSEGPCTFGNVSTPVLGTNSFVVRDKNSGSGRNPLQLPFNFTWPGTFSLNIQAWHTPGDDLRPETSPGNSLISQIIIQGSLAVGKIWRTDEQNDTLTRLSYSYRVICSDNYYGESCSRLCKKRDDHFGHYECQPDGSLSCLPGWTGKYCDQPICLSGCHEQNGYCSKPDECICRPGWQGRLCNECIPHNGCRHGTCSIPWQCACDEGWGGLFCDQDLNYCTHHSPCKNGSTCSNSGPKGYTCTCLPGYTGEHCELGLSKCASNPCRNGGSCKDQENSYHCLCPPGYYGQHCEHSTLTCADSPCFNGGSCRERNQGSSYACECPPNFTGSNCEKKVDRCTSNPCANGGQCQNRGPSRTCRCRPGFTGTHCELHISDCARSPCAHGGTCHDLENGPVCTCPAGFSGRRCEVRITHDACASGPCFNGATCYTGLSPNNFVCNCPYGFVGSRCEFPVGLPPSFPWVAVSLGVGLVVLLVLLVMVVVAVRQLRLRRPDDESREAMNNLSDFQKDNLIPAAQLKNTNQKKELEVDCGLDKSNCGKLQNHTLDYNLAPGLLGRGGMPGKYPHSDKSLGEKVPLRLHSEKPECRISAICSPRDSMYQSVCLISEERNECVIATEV
T2 sequence (Q9JI71 27-532): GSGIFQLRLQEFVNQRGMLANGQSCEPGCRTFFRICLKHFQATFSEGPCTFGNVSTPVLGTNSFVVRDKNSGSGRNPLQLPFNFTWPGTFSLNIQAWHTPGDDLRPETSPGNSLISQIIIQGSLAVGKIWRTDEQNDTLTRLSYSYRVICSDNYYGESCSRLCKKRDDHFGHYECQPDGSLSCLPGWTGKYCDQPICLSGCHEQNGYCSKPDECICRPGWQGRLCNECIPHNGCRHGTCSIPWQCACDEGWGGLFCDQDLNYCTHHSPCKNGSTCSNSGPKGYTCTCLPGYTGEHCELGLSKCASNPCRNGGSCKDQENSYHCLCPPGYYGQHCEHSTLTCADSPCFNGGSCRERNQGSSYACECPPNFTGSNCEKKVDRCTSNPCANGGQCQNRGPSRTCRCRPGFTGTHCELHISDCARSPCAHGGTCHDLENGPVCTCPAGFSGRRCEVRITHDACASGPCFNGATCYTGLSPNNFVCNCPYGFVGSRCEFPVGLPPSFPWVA
T1 sequence (Q9NR61 27-529 limits assumed): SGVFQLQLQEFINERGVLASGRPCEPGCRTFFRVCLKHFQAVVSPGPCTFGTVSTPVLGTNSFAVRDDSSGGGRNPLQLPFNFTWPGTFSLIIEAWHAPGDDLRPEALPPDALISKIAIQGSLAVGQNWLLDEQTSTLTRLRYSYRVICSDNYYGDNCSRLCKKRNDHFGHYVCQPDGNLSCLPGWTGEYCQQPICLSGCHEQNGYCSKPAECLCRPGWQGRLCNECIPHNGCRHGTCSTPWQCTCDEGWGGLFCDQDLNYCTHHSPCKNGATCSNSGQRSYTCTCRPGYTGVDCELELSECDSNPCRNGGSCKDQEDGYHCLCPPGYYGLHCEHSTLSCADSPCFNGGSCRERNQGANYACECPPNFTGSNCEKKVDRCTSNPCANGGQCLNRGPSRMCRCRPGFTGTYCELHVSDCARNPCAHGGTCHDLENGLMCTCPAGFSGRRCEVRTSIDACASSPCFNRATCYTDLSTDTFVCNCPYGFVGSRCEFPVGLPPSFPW
T4 sequence (Q9NR61 27-685 limits assumed): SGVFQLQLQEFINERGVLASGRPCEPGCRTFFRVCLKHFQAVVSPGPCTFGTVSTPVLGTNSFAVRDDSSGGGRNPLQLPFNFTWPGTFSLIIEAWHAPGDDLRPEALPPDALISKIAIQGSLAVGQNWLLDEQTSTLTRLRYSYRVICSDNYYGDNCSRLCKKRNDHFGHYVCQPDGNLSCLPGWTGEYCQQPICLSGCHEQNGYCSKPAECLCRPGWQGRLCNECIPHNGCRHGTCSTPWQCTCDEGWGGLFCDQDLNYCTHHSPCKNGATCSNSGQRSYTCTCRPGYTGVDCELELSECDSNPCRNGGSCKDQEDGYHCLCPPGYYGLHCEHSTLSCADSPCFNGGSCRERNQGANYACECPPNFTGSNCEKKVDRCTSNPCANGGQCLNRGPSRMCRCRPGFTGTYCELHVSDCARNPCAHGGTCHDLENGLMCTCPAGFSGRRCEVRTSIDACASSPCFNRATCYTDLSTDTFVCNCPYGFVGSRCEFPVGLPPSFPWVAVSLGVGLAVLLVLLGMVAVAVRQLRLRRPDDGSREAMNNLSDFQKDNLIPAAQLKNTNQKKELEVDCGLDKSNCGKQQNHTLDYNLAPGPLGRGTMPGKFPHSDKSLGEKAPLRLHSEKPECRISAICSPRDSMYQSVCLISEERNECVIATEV
T6 sequence (D3ZHH1 28-530): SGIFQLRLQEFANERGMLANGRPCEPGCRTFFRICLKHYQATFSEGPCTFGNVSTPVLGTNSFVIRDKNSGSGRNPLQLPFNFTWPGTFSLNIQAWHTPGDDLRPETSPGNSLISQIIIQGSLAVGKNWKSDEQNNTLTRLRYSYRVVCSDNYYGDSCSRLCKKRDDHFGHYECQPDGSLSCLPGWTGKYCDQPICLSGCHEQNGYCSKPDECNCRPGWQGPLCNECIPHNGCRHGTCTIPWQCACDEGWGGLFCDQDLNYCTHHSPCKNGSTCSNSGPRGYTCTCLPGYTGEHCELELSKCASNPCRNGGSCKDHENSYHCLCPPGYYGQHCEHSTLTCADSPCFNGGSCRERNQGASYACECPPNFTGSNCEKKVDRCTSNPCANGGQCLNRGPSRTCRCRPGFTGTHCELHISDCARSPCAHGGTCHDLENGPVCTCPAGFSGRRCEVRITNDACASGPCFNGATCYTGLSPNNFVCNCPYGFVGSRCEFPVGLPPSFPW

B1: h1A11.2 (antibody, V domains shown)
VH: EVQLVESGGGLVQPGGSLRLSCAASGFTFSNFPMAWVRQAPGKGLEWVATISSSDGTTYYRDSVKGRFTISRDNAKNSLYLQMNSLRAEDTAVYYCARGYYNSPFAYWGQGTLVTVSS
VL: DIQMTQSPSSLSASVGDRVTITCRASEDIYSNLAWYQQKPGKSPKLLIFDTNNLADGVPSRFSGSGSGTDSTLTISSLQPEDFATYFCQQYNNYPPTFGQGTKLEIKR
notes: humanized IgG; also called VH.1/VL.1a 1A11
On to B1, for which the values for the Kd in assay [1] and in assay [2] were 10 nM and 19 nM, respectively. Further, the EC50 amounted to 0.08 nM in assay [3]; 0.13 nM in assay [4]; 0.09 nM in assay [5]; 2.85 nM in [6]; 0.21 nM with mouse DLL4 on cells [7]. Moreover, the “Reporter Assay (EC50, nM)” value in assay [8] stood at 3.92 nM. The half-inhibitory concentration (IC50) is 0.3 nM in [9] and 0.9 nM in assay [10].

B2: h1A11.H2 (antibody, V domains shown)
VH: EVQLVESGGGLVQPGGSLRLSCAASGFTFGNFPMSWVRQAPGKGLEWVASISSSDSWATIGDSVKGRFTISRDNAKNSLYLQMNSLRAEDTAVYYCARGYYNSPFAFWGQGTLVTVSS
VL: DIQMTQSPSSLSASVGDRVTITCRASQEIYRNLAWYQQKPGKSPKLLIFDTSVLADGVPSRFSGSGSGTDSTLTISSLQPEDFATYYCQQYTYYPPTFGQGTKLEIK
notes: also called h1A11.H2 VH / h1A11.E12 VL
Consider B2, for which the Kd in [11] worked out at 0.27 nM; in [12], 0.35 nM; in assay [13], 0.33 nM; in assay [14] it was 16 nM. For the same molecule, the koff in [11] was 3.85e-05 s⁻¹; in assay [12], 4.6e-05 s⁻¹; in assay [13], 5.07e-05 s⁻¹; in [14] it was 0.00283 s⁻¹. For the same molecule, the kon in [11] turned out to be 143000 M⁻¹ s⁻¹; in assay [12], 131000 M⁻¹ s⁻¹; in assay [13], 154000 M⁻¹ s⁻¹; in assay [14] it was 178000 M⁻¹ s⁻¹. The “Inhibition of Notch Activation via DLL4 cells, Notch reporter assay” value in assay [15] stood at 0.856 nM; with mouse DLL4 on cells [16] it was 0.586 nM. The EC50 in [17] amounted to 1.98 nM; with mouse DLL4 on cells [18], 0.42 nM.

B3: h1A11.7 (antibody, V domains shown)
VH: EVQLVESGGGLVQPGGSLRLSCAASGFTFSNFPMAWVRQAPGKGLEWVATISSSDGTTYYRDSVKGRFTISRDNAKSSLYLQMNSLRAEDTAVYYCSRGYYNSPFAYWGQGTLVTVSS
VL: DIQMTQSPSSLSASVGDRVTITCRASEDIYSNLAWYQQKPGKAPKLLIFDTNNLADGVPSRFSGSGSGTDFTLTISSLQPEDFATYYCQQYNNYPPTFGQGTKLEIKR
notes: humanized IgG; also called VH.1a/VL.1b 1A11
As to B3, the Kd is 13 nM in assay [1] and 35 nM in [2]. Also, the EC50 amounted to 0.06 nM in assay [3]; 0.14 nM in assay [4]; 0.09 nM in [5]; 3.71 nM in assay [6]; 0.18 nM in the assay with mouse DLL4 on cells [7]. Moreover, the “Reporter Assay (EC50, nM)” value in assay [8] is 4.84 nM. Further, the values for the half-inhibitory concentration (IC50) in assay [9] and in [10] were 0.5 nM and 0.9 nM, respectively.

B4: h1A11.5 (antibody, V domains shown)
VH: EVQLVESGGGLVQPGGSLRLSCAASGFTFSNFPMAWVRQAPGKGLEWVATISSSDGTTYYRDSVKGRFTISRDNAKSSLYLQMNSLRAEDTAVYYCSRGYYNSPFAYWGQGTLVTVSS
VL: DIQMTQSPSSLSASVGDRVTITCRASEDIYSNLAWYQQKPGKAPKLLIYDTNNLADGVPSRFSGSGSGTDFTLTISSLQPEDFATYYCQQYNNYPPTFGQGTKLEIKR
notes: humanized IgG; also called VH.1a/VL.1 1A11
Regarding B4, the figures for the Kd in assay [1] and in assay [2] were 9.6 nM and 22 nM, respectively. Besides, the EC50 in assay [3] was 0.07 nM; in assay [4], 0.16 nM; in assay [5], 0.08 nM; in [6], 3.61 nM; in the assay with mouse DLL4 on cells [7], 0.21 nM. Besides, the “Reporter Assay (EC50, nM)” value in assay [8] was determined as 3.8 nM. For the same molecule, the concentration for half-maximal inhibition (IC50) came out at 0.3 nM in [9] and 0.8 nM in assay [10].

B5: h1A11.6 (antibody, V domains shown)
VH: EVQLVESGGGLVQPGGSLRLSCAASGFTFSNFPMAWVRQAPGKGLEWVATISSSDGTTYYRDSVKGRFTISRDNAKSSLYLQMNSLRAEDTAVYYCSRGYYNSPFAYWGQGTLVTVSS
VL: DIQMTQSPSSLSASVGDRVTITCRASEDIYSNLAWYQQKPGKSPKLLIFDTNNLADGVPSRFSGSGSGTDSTLTISSLQPEDFATYFCQQYNNYPPTFGQGTKLEIKR
notes: humanized IgG; also called VH.1a/VL.1a 1A11
Take B5: the values for the equilibrium dissociation constant (Kd) in assay [1] and in assay [2] were 11.3 nM and 31 nM, respectively. For the same molecule, the concentration giving a half-maximal response (EC50) in assay [3] came out at 0.08 nM; in [4] it was 0.13 nM; in assay [5] it was 0.1 nM; in [6] it was 3.74 nM; with mouse DLL4 on cells [7], 0.15 nM. In addition, the “Reporter Assay (EC50, nM)” value in assay [8] is 1.45 nM. Besides, the values for the IC50 in assay [9] and in [10] were 0.4 nM and 0.8 nM, respectively.
